Patent publication US20110098443A1 (Janssen / Centocor, published 2011)

T1: mouse IL-12 (biotinylated control protein) (mouse, UniProt P43431 23-215; P43432 23-335, biotinylated (site not stated))
T1 sequence (looked up) 1: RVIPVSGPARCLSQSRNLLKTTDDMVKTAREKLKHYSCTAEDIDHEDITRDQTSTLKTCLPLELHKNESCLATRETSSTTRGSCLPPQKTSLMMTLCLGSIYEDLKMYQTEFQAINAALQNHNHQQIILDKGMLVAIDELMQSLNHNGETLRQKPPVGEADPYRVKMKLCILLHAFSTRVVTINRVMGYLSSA
T1 sequence (looked up) 2: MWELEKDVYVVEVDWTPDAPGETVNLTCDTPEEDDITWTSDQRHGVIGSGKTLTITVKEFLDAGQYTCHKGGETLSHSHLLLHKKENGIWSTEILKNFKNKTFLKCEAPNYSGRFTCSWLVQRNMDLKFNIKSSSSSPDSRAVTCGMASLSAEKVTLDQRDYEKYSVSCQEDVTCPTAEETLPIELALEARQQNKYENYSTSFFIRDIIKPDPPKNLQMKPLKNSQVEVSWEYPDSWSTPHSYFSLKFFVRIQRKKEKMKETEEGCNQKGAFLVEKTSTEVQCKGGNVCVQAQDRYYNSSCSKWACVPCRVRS

T2: mouse IL-23 (biotinylated control protein) (mouse, UniProt Q9EQ14 22-196; P43432 23-335, biotinylated (site not stated))
T2 sequence (looked up) 1: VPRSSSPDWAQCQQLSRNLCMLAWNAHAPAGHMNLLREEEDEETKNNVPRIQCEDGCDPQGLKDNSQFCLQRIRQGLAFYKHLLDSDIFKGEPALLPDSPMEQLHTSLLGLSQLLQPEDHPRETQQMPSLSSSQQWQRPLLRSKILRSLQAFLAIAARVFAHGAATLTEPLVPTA
T2 sequence (looked up) 2: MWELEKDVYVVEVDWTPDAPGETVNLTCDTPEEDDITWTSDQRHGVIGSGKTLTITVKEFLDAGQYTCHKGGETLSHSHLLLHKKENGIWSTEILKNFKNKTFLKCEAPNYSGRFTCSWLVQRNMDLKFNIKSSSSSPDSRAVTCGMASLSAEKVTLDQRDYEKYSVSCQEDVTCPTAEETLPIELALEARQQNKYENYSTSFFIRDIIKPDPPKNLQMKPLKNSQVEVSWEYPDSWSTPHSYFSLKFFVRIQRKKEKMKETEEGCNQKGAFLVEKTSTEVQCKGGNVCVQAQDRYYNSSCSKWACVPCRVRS

T3: mouse IL-18 (biotinylated control protein) (mouse, UniProt P70380 36-192, biotinylated (site not stated))
T3 sequence (looked up): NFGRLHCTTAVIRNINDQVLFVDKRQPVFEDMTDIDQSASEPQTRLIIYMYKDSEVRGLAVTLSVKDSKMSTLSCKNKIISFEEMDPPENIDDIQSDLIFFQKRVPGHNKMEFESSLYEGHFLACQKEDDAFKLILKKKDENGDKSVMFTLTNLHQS


Assays:
[1] = molecular target: T4, human GLP-1 receptor (full length, on cells) (human, UniProt P43220 24-463); assay: cell-based or functional assay
[2] = molecular target: T4, human GLP-1 receptor (full length, on …); assay: displacement of 3 nM 125I GLP-1 from HEK293F cells over-expressing human GLP-1R, overnight at 4 C; IC50 fitted directly from displacement of 3 nM 125I GLP-1
[3] = molecular target: T4, human GLP-1 receptor (full length, on …); assay: calculated from the 125I GLP-1 displacement IC50, assuming a GLP-1 Kd of 3 nM and competitive inhibition; Ki derived from the IC50, assuming GLP-1 Kd of 3 nM and competitive inhibition
[4] = molecular target: T1, mouse IL-12 (biotinylated control …); assay: neutravidin capture ELISA
Protocol: (§1) The first characterization assay was a neutravidin capture assay. 96-well Maxisorp plates were coated (100 μl/well) with 5 μg/ml of neutravidin in PBS and were incubated at 4° C. overnight. Coated plates were washed with TBST. […] Plates were washed with TBST and blocked with 300 μl/well of 1× Chemiblocker for 1 hour at RT. Plates were washed with TBST. […] Plates were washed with TBST. Plates were treated for 1 hour at RT with 100 μl/well of goat anti-human IgG (H+L)-AP detection antibody diluted 1:5000 in TBST. AttoPhos substrate (1:5) detected AP activity.

[5] = molecular target: rat transferrin (biotinylated control protein) (rat, UniProt P12346 20-698, biotinylated (site not stated)); assay: neutravidin capture ELISA
Protocol: as §1

[6] = molecular target: T2, mouse IL-23 (biotinylated control …); assay: neutravidin capture ELISA
Protocol: as §1

[7] = molecular target: T3, mouse IL-18 (biotinylated control …); assay: neutravidin capture ELISA
Protocol: as §1

rat transferrin (biotinylated control protein), sequence (P12346 20-698 limits assumed): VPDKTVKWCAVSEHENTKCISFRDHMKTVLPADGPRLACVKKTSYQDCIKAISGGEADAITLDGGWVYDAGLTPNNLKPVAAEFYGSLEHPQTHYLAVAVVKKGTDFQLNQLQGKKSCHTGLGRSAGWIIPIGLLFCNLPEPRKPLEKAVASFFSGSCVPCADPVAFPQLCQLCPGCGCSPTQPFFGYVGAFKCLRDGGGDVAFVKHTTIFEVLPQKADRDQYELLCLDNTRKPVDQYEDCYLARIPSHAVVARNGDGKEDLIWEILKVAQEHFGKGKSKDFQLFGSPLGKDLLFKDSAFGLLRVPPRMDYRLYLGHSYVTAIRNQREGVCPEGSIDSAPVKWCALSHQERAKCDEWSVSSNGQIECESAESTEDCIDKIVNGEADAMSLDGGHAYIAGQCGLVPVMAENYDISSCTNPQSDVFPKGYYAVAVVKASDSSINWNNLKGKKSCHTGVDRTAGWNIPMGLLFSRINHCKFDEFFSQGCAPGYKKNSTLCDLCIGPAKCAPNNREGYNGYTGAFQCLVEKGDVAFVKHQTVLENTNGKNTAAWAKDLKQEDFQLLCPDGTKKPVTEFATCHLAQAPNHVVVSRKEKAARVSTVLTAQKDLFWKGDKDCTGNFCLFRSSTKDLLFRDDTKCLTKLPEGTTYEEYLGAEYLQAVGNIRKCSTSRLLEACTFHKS

| Binder | IC50 of inhibition of GLP-1 dependent cAMP accumulation (0.3 nM GLP-1, HEK293F cells over-expressing human GLP-1R) [1] | IC50 [2] | Ki [3] | binding result [4] | binding result [5] | binding result [6] | binding result [7] |
| --- | --- | --- | --- | --- | --- | --- | --- |
| PHD 191 (format not stated in the assay) (antibody, V domains shown) VH: QVELVQSGAEVKKPGSSVKVSCKASGGTFSAIHWVRQAPGQGLEWMGGIIPIFGMADYAQKFQGRVTITADESTSTAYMELSSLRSEDTAVYYCARTDYGFRALDYWGQGTLVTVSS VL: not shown | 3.3 nM | 48.5 nM | ~20 nM | – | – | – | – |
| PHD 191 mAb, human IgG1 / human kappa (antibody, V domains shown, The human IgG1/kappa format is inferred from the goat anti-human IgG (H+L) detection antibody) VH: QVELVQSGAEVKKPGSSVKVSCKASGGTFSAIHWVRQAPGQGLEWMGGIIPIFGMADYAQKFQGRVTITADESTSTAYMELSSLRSEDTAVYYCARTDYGFRALDYWGQGTLVTVSS VL: not shown | – | – | – | no binding (tested: starting at 5 µg/ml) | no binding (tested: starting at 5 µg/ml) | no binding (tested: starting at 5 µg/ml) | no binding (tested: starting at 5 µg/ml) |
